Experimental data taken from PMC3296483 (Biochemical Journal, 2011).

B1: rat GluA1 amino-terminal domain (P4-A374), tags removed (domain or fragment, UniProt P19490 22-392, looked up)
chain: PNNIQIGGLFPNQQSQEHAAFRFALSQLTEPPKLLPQIDIVNISDSFEMTYRFCSQFSKGVYAIFGFYERRTVNMLTSFCGALHVCFITPSFPVDTSNQFVLQLRPELQEALISIIDHYKWQTFVYIYDADRGLSVLQRVLDTAAEKNWQVTAVNILTTTEEGYRMLFQDLEKKKERLVVVDCESERLNAILGQIVKLEKNGIGYHYILANLGFMDIDLNKFKESGANVTGFQLVNYTDTIPARIMQQWRTSDSRDHTRVDWKRPKYTSALTYDGVKVMAEAFQSLRRQRIDISRRGNAGDCLANPAVPWGQGIDIQRALQQVRFEGLTGNVQFNEKGRRTNYTLHVIEMKHDGIRKIGYWNEDDKFVPAA

Columns and labels:
[1] = molecular target: GluA2 ATD (Rattus norvegicus) (UniProt P19491); settings: cited from earlier work
Chain of GluA2 ATD (Rattus norvegicus) (P19491 22-398): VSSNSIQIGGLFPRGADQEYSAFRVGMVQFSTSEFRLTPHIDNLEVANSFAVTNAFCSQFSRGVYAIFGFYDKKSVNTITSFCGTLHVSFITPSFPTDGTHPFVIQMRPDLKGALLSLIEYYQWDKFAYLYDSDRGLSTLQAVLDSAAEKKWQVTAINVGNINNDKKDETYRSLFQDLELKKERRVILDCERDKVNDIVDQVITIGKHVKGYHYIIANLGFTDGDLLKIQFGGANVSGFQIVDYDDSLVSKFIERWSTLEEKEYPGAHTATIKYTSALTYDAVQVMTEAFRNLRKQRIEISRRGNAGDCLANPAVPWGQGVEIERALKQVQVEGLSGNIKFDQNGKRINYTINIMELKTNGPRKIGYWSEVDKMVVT

crystal structure = molecular target: the molecule itself; assay: crystal structure

| Molecule | Kd [1] | binding result (crystal structure) |
| --- | --- | --- |
| GluA1 ATD (from UniProt P19490) | 0.4 nM | – |
| B1 | – | binds |
